Literature values as cited in paper PMC6006191.

Target: GLRX3 (Homo sapiens) (UniProt O76003)
Assay: NMR

Sequence of UniProt O76003 (O76003 2-335): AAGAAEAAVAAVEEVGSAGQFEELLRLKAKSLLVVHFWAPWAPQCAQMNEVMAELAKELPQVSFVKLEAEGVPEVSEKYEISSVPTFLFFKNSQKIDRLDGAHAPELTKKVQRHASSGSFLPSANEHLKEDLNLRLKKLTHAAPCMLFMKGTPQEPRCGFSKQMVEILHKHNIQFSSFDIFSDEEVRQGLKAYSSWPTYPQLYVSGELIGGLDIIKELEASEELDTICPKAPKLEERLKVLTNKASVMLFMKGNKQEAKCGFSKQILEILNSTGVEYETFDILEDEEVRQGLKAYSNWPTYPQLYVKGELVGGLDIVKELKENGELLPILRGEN

In the case of BOLA2 (apo) (from UniProt Q9H3K6), the Kd is given as 25 µM.
